Our source for the Kd, koff and kon values is US20220177594A1 (ZOETIS SERVICES, published 2022).

Sequences and labels used below:
B1: Mu_02D09_VH (SEQ ID NO: 31)_D31A (antibody, V domains shown)
VH: EVQLVESGGGLVKPGGSLTLSCAASGFTFSAYGMHWLRQAPEKGLEWVAYISSGSRAVFFADTVKGRFTISRDNAKNTLFLQMTSLRSDDTAMYYCARDRYDGRGFAYWGQGTLVTVSA
VL: DIVLTQSPATLSVTPGDSVSLSCRASQSISNNLHWYQQTSHESPRLLITYASQSISGIPSRFSGSGSGTDFTLSINSVETEDFGMYFCQQSNSWPLTFGAGTKLELKR
B2: Mu_02D09_VH (SEQ ID NO: 31)_G33A (antibody, V domains shown)
VH: EVQLVESGGGLVKPGGSLTLSCAASGFTFSDYAMHWLRQAPEKGLEWVAYISSGSRAVFFADTVKGRFTISRDNAKNTLFLQMTSLRSDDTAMYYCARDRYDGRGFAYWGQGTLVTVSA
VL: DIVLTQSPATLSVTPGDSVSLSCRASQSISNNLHWYQQTSHESPRLLITYASQSISGIPSRFSGSGSGTDFTLSINSVETEDFGMYFCQQSNSWPLTFGAGTKLELKR
B3: Mu_02D09_VH (SEQ ID NO: 31)_Y32A (antibody, V domains shown)
VH: EVQLVESGGGLVKPGGSLTLSCAASGFTFSDAGMHWLRQAPEKGLEWVAYISSGSRAVFFADTVKGRFTISRDNAKNTLFLQMTSLRSDDTAMYYCARDRYDGRGFAYWGQGTLVTVSA
VL: DIVLTQSPATLSVTPGDSVSLSCRASQSISNNLHWYQQTSHESPRLLITYASQSISGIPSRFSGSGSGTDFTLSINSVETEDFGMYFCQQSNSWPLTFGAGTKLELKR
B4: Mu_02D09_VH (SEQ ID NO: 31)_D62A (antibody, V domains shown)
VH: EVQLVESGGGLVKPGGSLTLSCAASGFTFSDYGMHWLRQAPEKGLEWVAYISSGSRAVFFAATVKGRFTISRDNAKNTLFLQMTSLRSDDTAMYYCARDRYDGRGFAYWGQGTLVTVSA
VL: DIVLTQSPATLSVTPGDSVSLSCRASQSISNNLHWYQQTSHESPRLLITYASQSISGIPSRFSGSGSGTDFTLSINSVETEDFGMYFCQQSNSWPLTFGAGTKLELKR
B5: Mu_02D09_VH (SEQ ID NO: 31)_S52A (antibody, V domains shown)
VH: EVQLVESGGGLVKPGGSLTLSCAASGFTFSDYGMHWLRQAPEKGLEWVAYIASGSRAVFFADTVKGRFTISRDNAKNTLFLQMTSLRSDDTAMYYCARDRYDGRGFAYWGQGTLVTVSA
VL: DIVLTQSPATLSVTPGDSVSLSCRASQSISNNLHWYQQTSHESPRLLITYASQSISGIPSRFSGSGSGTDFTLSINSVETEDFGMYFCQQSNSWPLTFGAGTKLELKR
B6: Mu_02D09_VH (SEQ ID NO: 31)_Y50A (antibody, V domains shown)
VH: EVQLVESGGGLVKPGGSLTLSCAASGFTFSDYGMHWLRQAPEKGLEWVAAISSGSRAVFFADTVKGRFTISRDNAKNTLFLQMTSLRSDDTAMYYCARDRYDGRGFAYWGQGTLVTVSA
VL: DIVLTQSPATLSVTPGDSVSLSCRASQSISNNLHWYQQTSHESPRLLITYASQSISGIPSRFSGSGSGTDFTLSINSVETEDFGMYFCQQSNSWPLTFGAGTKLELKR
B7: Mu_02D09_VH (SEQ ID NO: 31)_H35A (antibody, V domains shown)
VH: EVQLVESGGGLVKPGGSLTLSCAASGFTFSDYGMAWLRQAPEKGLEWVAYISSGSRAVFFADTVKGRFTISRDNAKNTLFLQMTSLRSDDTAMYYCARDRYDGRGFAYWGQGTLVTVSA
VL: DIVLTQSPATLSVTPGDSVSLSCRASQSISNNLHWYQQTSHESPRLLITYASQSISGIPSRFSGSGSGTDFTLSINSVETEDFGMYFCQQSNSWPLTFGAGTKLELKR

For the assay, the target named is T1, ANTIBODY EXPRESSION CONTROL.
T1 construct: also called mouse anti-canine antibody (capture reagent of the expression control ELISA)
The experiment in a line: SPR Biacore, expression control. On the procedure: The affinity with which candidate mAbs bind canine, feline, and human (SEQ ID NO: 122; Human_OSMR) (R&D Systems, Minneapolis, Minn.) OSMR was determined using surface plasmon resonance (SPR) on a Biacore system (Biacore Life Sciences (GE Healthcare), Uppsala, Sweden). To avoid affinity differences associated with differential surface preparation that can occur when immobilizing antibodies to surfaces; OSMR from each species was directly conjugated to individual surfaces. Immobilization was obtained by amine coupling 5 μg/mL OSMR using N-hydroxysuccinimide (NHS)/1-Ethyl-3-(3-dimethylaminopropyl) carbodiimide (EDC) chemistry. Chips were quenched with ethanolamine and the affinity with which all candidate mAbs bound to the immobilized OSMR was evaluated. All curves were fit to a 1:1 model. […] Results for affinity measurements are described herein.
Data from an ELISA represents an equilibrium state where the antibody is allowed to associate and dissociate over a one-hour period resulting in steady-state binding. Using Biacore, the target protein is immobilized to a surface and the antibody is passed over this surface in a mobile liquid phase. Protein-protein interaction is determined from changes in the surface resonance which allows for calculation of association (kₐ), disassociation (kd), and affinity constant (KD). While not wishing to be bound to one hypothesis we present data from ELISA and Biacore experiments, using the same preparation of antibody, that may result in agreement between the two methods with respect to binding but also may show contradictory results due to the nature of the binding kinetics and different assay dynamics. The data presented in Table A (in combination with experimental results from yeast display mutational analysis in Example 21) allow for the definition of a structure:function relationship to be defined between the anti-OSMR antibodies described here and their ability to bind and block IL-31 and OSM-mediated signaling through the OSMR receptor.
In the case of B1, the equilibrium dissociation constant (Kd) turned out to be 0.0685 nM, the koff stood at 8.32e-05 s⁻¹ and the kon stood at 1.21e+06 M⁻¹ s⁻¹.

On to B2, for which the Kd is 0.0225 nM, the off-rate (koff) was 7.35e-06 s⁻¹ and the kon was determined as 327000 M⁻¹ s⁻¹.

As for B3, the Kd worked out at 0.366 nM, the koff was 4.43e-05 s⁻¹ and the on-rate constant (kon) worked out at 121000 M⁻¹ s⁻¹.

For the molecule B4, the dissociation constant Kd turned out to be 0.0019 nM, the dissociation rate constant (koff) is 2.45e-07 s⁻¹ and the kon turned out to be 129000 M⁻¹ s⁻¹.

On to B5, for which the Kd was 0.0233 nM, the koff amounted to 7.55e-06 s⁻¹ and the on-rate constant (kon) stood at 323000 M⁻¹ s⁻¹.

Consider B6, for which the Kd was found to be 0.00259 nM, the off-rate (koff) is 3.68e-07 s⁻¹ and the on-rate constant (kon) was 142000 M⁻¹ s⁻¹.

Turning to B7, the equilibrium dissociation constant (Kd) is 0.803 nM, the koff stood at 0.000112 s⁻¹ and the kon is 139000 M⁻¹ s⁻¹.
